Experimental data taken from the DeepSol protein solubility set.

Test: soluble on expression in E. coli; label from the status in PepcDB or PDB records

Row | Sequence | soluble on expression in E. coli
1 | GDSSSSGNSFVGLRVVAKWSSNGYFYSGKITRDVGAGKYKLLFDDGYECDVLGKDILLCDPIPLDTEVTALSEDEYFSAGVVKGHRKESGELYYSIEKEGQRKWYKRMAVILSLEQGNRLREQYGLGPYEAVTPLTKAADISLDNLVEGKRKRRSN | soluble
2 | MFKLFTARQHDKIWDFDGGIHPPEMKLQSSTVPMRIAPLPDQLIIPLQQHLGPEGELRVRAGEQVLKGQPLTVGRGRTVPVHAPTSGMITAIAPHTTAHPSGLAELCVHITPDGEDRWREQQPWADYRQRDKMALLDRIHQAGIAGLGGAGFPTASKLQGGLNGIITLIINAAECEPYITADDRLMQEHADEVITGIHILRHLLQPQQVLIGIEDNKPEAIAALQRALRGQDDIHLRVVPTKYPSGGAKQLTKILTGKEVPFGKHSSSIGVLMQNVGTVVAIKRAVIDDEPLIERVVTLTGDALSSPGNFWARIGTPVLYLLKLAGFKPQNPPMVIMGGPLMGFTLPSLDVPIVKISNCILAPAETEMGLSEPEQSCIRCGLCVDACPAGLLPQQLYWFSRGEEHEKARNHNLFDCIECGACAYVCPSNIPLVQYYRQEKAEIRALDQESARAAEAKARFEAKQARLAREKLARELRHKQAAVKLTDADQQTVDAAVSRLTRQSDGSESVINIPAGQMPDNSAVIAAREARKAQARARQAEKQQARSTEETTDVVDPRQAAVAAAIARVKAKKAVQAQHVTTDVAEAGSEAMAEDPRKAAVAAAIARVKAKKAAQAINPD | not soluble
3 | EAGAPCGRISFALRYLYGSDQLVVRILQALDLPAKDSNGFSDPYVKIYLLPDRKKKFQTKVHRKTLNPIFNETFQFSVPLAELAQRKLHFSVYDFDRFSRHDLIGQVVLDNLLELAEQPPDRPLWRDILEGGSEKADLGELNFSLCYLPTAGLLTVTIIKASNLKAMDLTGFSDPYVKASLISEGRRLKKRKTSIKKNTLNPTYNEALVFDVAPESVENVGLSIAVVDYDCIGHNEVIGVCRVGPEAADPHGREHWAEMLANPRKPVEHWHQLVEEKTLSSFTKGGKGLSEKENSE | soluble
4 | MGALLKGRIYTMSVKTLKRTITAVAILAASVMSSSAWSNDLKEIRERGVLRHIGVPYANFVSYIEQGEMHTLTGLDVDIVKGFASSLGVRYEYVPAQWSDMVGKLTGQDVQYRHNRAVVGGSVPIEGDLIANGVTILDWREEVLDFSQDYFPSAVWLVSRTDSSLSPIKPSGSIDEDVKTVKELIDGREVLALEHSCLDPNLYDLYDTGAKVILPDGKRLLNEMVPAIMKNDAESTLLDVADTLIALEKWPG | not soluble
5 | GPGSMPAKKKEVKVDEPLFVDEEGSYVHEAEGARYKGGVRRYAPPGGTDAGGTAAPPAKNSRSRSTSSPGKGGATPPPSAAAGAAASMAVVSDAPVFRHGRGVYTCPSFTYAGDWVEDEMHGSGQLTFVESGNIYEGEFSHGCFSGQGTYQWRDGALYCGQWRSNRMHGEGIYTDVQGHVWKGRYYNGTGPGLIRLYPTLERVDDAGPSSPGPDATNAAATVANS | soluble
6 | MGSDKIHHHHHHMHAIGFTDHLPIEDPASLRDVTISKPSAQGHDLLVQVQAVAVNPVDVSVRKTGHEHRMRPKILGWDATGIVTAVGEAVTLFQPGDHVFYAGSFRRPGCDSAYHLVDERLVGHAPATLTTAARAAMPLTSLTAYEALFEQLHIPFDPAKPNSEKCNQTILIINGAGGVGSIATQLAKLAGLTVISSASRPESIAWTQQHGADLVVNHHHDLVSEVHALGIKDVDYILGLSDLDSHWNEICTLIKPGGHIASITENRRPIDLKKLTKKRGTFAWEWMYSKSYYHTADMISQHDILETIADLLDRGLLQSTLSQTLRPINALNLRQAHQLIEQHHMIGKVVIEGWE | not soluble
7 | MSSEYIIGRNPVIEALRSGRDINKIWIAEGAAKGQVQIVLALAKENKIILQHAPKKKLDQLVEGNHQGVIAQVAAYQYAELEDLFKVAEKRNEDPFFLILDEIEDPHNLGSIMRTADATGAHGIIIPKRRAVGLTASVAKASTGAIEYIPVARVTNLSRTIDELKERGLWIAGTDAKGKTDYRNLDGKMPIGLVIGSEGKGMSRIIGEKCDFLITLPMVGKVTSLNASVAASLLMYEVYRKRNEIGK | soluble
8 | MGSDKIHHHHHHMRVAIDAFNIALAHGTGVATYGRTLASAAAGLGHEVNVLFGAGAGYSKVPLLNEIALAEVGAVSARGPSRAALARGIARGLAGARPAHDLPISGQVILPPGLRLDARRHSNVPNLFKAADLGFRAAGAFSKVKVPGTDLAHWTYPLPLKMVGARNVYTLHDLVPLRLPYTTADVKHAYYRLCRRIARDADHILTVSECSRRDIVRLLGVDEDRVTNLYQTSDIADAIAGVSEDFVARYVEGLLGVGMREYFLFFGAIEPKKNVARLIEAFLASAVQSPLVIVGGAGWGGEQDVKLLKSLAGMDTRKRIVWLGYLPRQMLAMLIAGARATVFPSLYEGFGLPVLESMELGTPVITSNVSSLPEVAQDAGLLVDPYDVRSLATAFLQLDADPGLRSQMSMRGREVAAGFSAEAYRGRLADFYAKF | not soluble
9 | MKKPVYLTPEGYRRLQEELNHLKTVKRQEISADFEQALEEGDLRENAGYDEARRAMWQNEARIAQLEDLLSRAVIVENGSFDQVALGCQVELETETGERLSLAIVGSHEADIFSGKISDESPLGQALLGKKVGDVVEIRGKKGAQVYTILEIKPL | soluble
10 | HHHHDYDIPTTENLYFQGHMTIHKKGQAHWEGDIKRGKGTVSTESGVLNQQPYGFNTRFEGEKGTNPEELIGAAHAACFSMALSLMLGEAGFTPTSIDTTADVSLDKVDAGFAITKIALKSEVAVPGIDASTFDGIIQKAKAGCPVSQVLKAEITLDYQLKS | soluble
11 | MSLQRPLGNHHDGPDTLLVTSDATQTELVTAETEKLRELITRARFVLFDFDGPICRLFAGHKAERVAVELVEWLEGRGLHALLSETEREALDPHIVLRAVDRRHPGSDLVAELEERLTKQELRAASSAMPTAYADPLIRTWTAVGARLAIATNNSPRVARKYVASRGLSACFAPHIYGRTQDLHLLKPDPHCLNRALNAMGAAPSASLMIGDTPSDYFAAQRAGVPFLGYARNDRKEKLLKEAGAEEIVGSLELVLRVLREQSASAREGHHHHHH | soluble
12 | MNIELRHLRYFVAVAEELHFGRAAARLNISQPPLSQQIQALEQQIGARLLARTNRSVLLTAAGKQFLADSRQILSMVDDAAARAERLHQGEAGELRIGFTSSAPFIRAVSDTLSLFRRDYPDVHLQTREMNTREQIAPLIEGTLDMGLLRNTALPESLEHAVIVHEPLMAMIPHDHPLANNPNVTLAELAKEPFVFFDPHVGTGLYDDILGLMRRYHLTPVITQEVGEAMTIIGLVSAGLGVSILPASFKRVQLNEMRWVPIAEEDAVSEMWLVWPKHHEQSPAARNFRIHLLNALR | not soluble
13 | MSLSSLLIDLKGKELEQEEVELLSHPLVAGLILFTRNFENREQIQELIRSVRQRVKKPLLITVDQEGGRVQRFRDGFTMLPSMQAFQETLSATEQVSFAKEAGWQMAAEMIALDIDLSFAPVLDLGHECRAIGDRSFSSDVKSAVNLATAFIDGMHQAGMASTGKHFPGHGHVLADSHLETPYDDRTKEEIFSGDLQPFQQLISQNKLDAIMPAHVIYSQCDSQPASGSKYWLKEILRKKLNFQGTIFSDDLGMKGAGVMGNFVERSKKALNAGCDLLLLCNEREGVIQVLDNLKLTENQPHFMARQARLQSLFKRRVINWNDLISDQRWRLNYQKLADIQSRWLDIQAAKNDEGGSHHHHHH | soluble
14 | GPGSMAAVPPQKAANIAQRLQPQCATVGPATLRMSAGKSLKIRENAMYSNMPPPTAFTTPCSATNAGPVMEVCVPFIVMTPIAMPRGTETEKIIVITTSSMTLMEASTSREPSAIPSNSWWNDNATSSVLMSLSLAIPTERPKNTLCEAKPNSIKIAAATRLALFR | not soluble
15 | MQTENKTSPYYRTKLRGLYTTAKADAEAECSILRRALDKIAEIKSLLEERRIAARMAGVYSDNDPPRKTMRRGVLMTLLQQSAMTLPLWIGKPGESPPPLCGAIPASSDYVAKQGDKVAARVKAVDGDEQWILAEVVSYNHSTNKYEVDDIDEEGKERHTLSRRRIIPLPQWEANPETDPEALFSKDQLVLALYPQTTCFYRALIHTPPHRPQDDYSVLFEDTSYADGYSPPLNVAQRYVVACKENKKK | not soluble
16 | MGSDKIHHHHHHMDNPVMSAITSLYPQVQFLQRQAASLLLYQSVLQTDVGIAFQELLQAIRYADADARGSLQAYGNYFHALATRKQNWEDYLVSQILIAENPFSKVTQQQDFKDLPPALISAVKHDLQVLQSLYECNSAVLSQWVQAVAHLPISPVVWYLEQDDMGSETALSLHHLEHWADAVEELATHYQKFGIGLFAQYRALRWQDGEFVGIPYPDPVKLGTLVGYESQQEALLKNTEFLLSGEKALHVLLYGSRGAGKSSLVKALLNEYSHRQLRLLEVSKADLKDLPKIVEQLRGVPQKFIIFVDDLSFEEDDDAFKALKVVLEGNLTARPHNVVVYATSNRRHLIREFFADRPSLKNNEEVHAGDTMQEKLSFSDRFGLTLTFESADQSTYLKIVRHLATQAGISISPEELEYQALQWATRHNGRSGRTAQQFIDFLKADTSVFATNNSILDTQS | not soluble
17 | NAIQWVEHTDRVINNTNRSMKLSIDMETGMRGFLLTGDQHFLDPYEIAKPLLVAELNGLQDLVKDNPTQQDRFRRLFTMQQEWNVFAQDMIDLRRNNGDFQTPVLAGRGKRITDQIRTEYEQAVEMEQQLRLTRNAE | not soluble
18 | MAHHHHHHMDKKRSIVKKPERGSFLLDHNSECTPIKNDYLKCLKEHNNDHVSCREYSKEYFICRMDKNLLERQSLNDLGFSENETNHESRIKHFKDVYSYNVYNETMESFPKGRALKRTDTASGAVFVEEKLTQGKRDNKADMKPARGDDFLLLNLRNDKEGEQKINGKVFEITQEKKIAVKRKEEEGYLAGKEYIKTLVEKKKRHPLFSYNIFKSSNT | soluble
19 | MVSYQILLLLVSILPLTYSIRTSKWHFSGKLLCPLYTFKYHLEVFEEDYFRKTDDLLTNQTEVSSISPHLYKVDAEETDDGLDFGRHFEIYMLIIHDCNPDRYVKSLKVDWGKYHIDIEFVTFYALKFEIFSEVSEVKDIDVFGKGSAL | not soluble
20 | SNAMSKITFKDIYIDGNKITEDSRKAIYLLPPQPLKYASNTWIYKTMPTMNQWLKDIEVQKKMHLNQSSYHLSFSFPANEKIDEVLLEKIRELGFQIGVLELYVIEAKALKELSRKRDVDIQLVSSNNINDYLHVYDAFARPFGDSYANMVKQHIYSSYNLDDIERLVAYVNHQPVGIVDIIMTDKTIEIDGFGVLEEFQHQGIGSEIQAYVGRMANERPVILVADGKDTAKDMYLRQGYVYQGFKYHILKENI | soluble
21 | MELPSMNVPFSRYCWVTLTIQDHLPIDSFRSLNLSITNDNYSGGDLKAYPADFNGILAGNWFTFSPVTYSMKLQYNYTNGAEEATRVRVYCKSPLPYWLPYCG | not soluble
22 | MSLSVTRENFDEWMVPVYVPAPFIPVRGEGSRLWDQQGKEYIDFAGGIAVNALGHAHPALREALNEQANRFWHIGNGYTNEPALRLAKKLIDATFAERVFFCNSGAEANEAALKLARKYAHDRVGNHKSGIVAFKNAFHGRTLFTVSAGGQPTYSQDFAPLPPDIRHAAYNDLNSASALIDDNTCAVIVEPVQGEGGVIPATKAFLQGLRELCDRHQALLIFDEVQTGVGRTGELYAYMHYGVTPDILTTAKALGGGFPIGAMLTTQDYASVMTPGTHGTTYGGNPLATAVAGKVLDIINTPEMQNGVRQRHDAFIERLNTLNVRFGMFSEIRGLGLLLGCVLQTEFAGKAKLIAQEAAKAGVMVLIAGGDVVRFAPALNVSDEEIATGLDRFALACERLQTGGVPCG | not soluble
